Results as given in paper PMC7078208, “Interaction of SHP-2 SH2 domains with PD-1 ITSM induces PD-1 dimerization and SHP-2 activation” (Communications Biology, 2020).
Square brackets hold non-standard residues; d marks the D form. Ends that are not written are not given here. pY = N[C@@H](Cc1ccc(OP(=O)(O)O)cc1)C(=O)O

Assays:
[1] = biological target: T1, t-SHP-2 (SHP-2 tandem SH2 domains, amino acids 1-225) (Homo sapiens, UniProt Q06124); test: Isothermal titration calorimetry of PD-1 phosphopeptides with t-SHP-2; type: binding; settings: for Kd: ITC, MicroCal ITC200, peptide 50-100 µM titrated into t-SHP-2 3-5 µM, 19 injections, 20 °C, 50 mM HEPES pH 7.4, 100 mM NaCl, 5 mM TCEP
T1 construct: made in house
T1 sequence (Q06124 1-225): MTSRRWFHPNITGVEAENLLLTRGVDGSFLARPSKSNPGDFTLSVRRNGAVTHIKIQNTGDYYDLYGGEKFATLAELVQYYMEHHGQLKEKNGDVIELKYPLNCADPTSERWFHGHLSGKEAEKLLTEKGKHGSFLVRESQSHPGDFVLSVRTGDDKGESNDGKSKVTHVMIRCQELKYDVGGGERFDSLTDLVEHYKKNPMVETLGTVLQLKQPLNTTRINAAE
Description: Isothermal titration calorimetry (ITC) was performed on a MicroCal ITC200 instrument (Malvern, Worcestershire, UK), using established methodology. Briefly, PD-1 phosphopeptides (PD-1cyto-pITIM-pITSM, PD-1cyto-ITIM-pITSM and PD-1cyto-pITIM-ITSM) and SHP-2 tandem-SH2 protein (t-SHP-2) were prepared in buffer containing 50 mM HEPES pH 7.4, 100 mM NaCl, 5 mM TCEP. Each peptide (50–100 µM) was titrated into a t-SHP-2 sample (3–5 µM) in a total of 19 injections at 20^ oC. We used reference power 6.0, initial delay 60 s and stirring speed 750 rpm. Injection volume was 0.4 µl for first injection and 2 µl for subsequent injections, injection duration was 0.8 s for first injection and 4 s for subsequent injections, with 150 s spacing and 5 s filter period. Reference cell was filled with sterile Milli-Q water. Controls of peptide titrations into buffer were run for baseline corrections. Data analysis was done using Origin 7.0 software.

SHP-2-full-length = biological target: T2, SHP-2-full-length (Homo sapiens, UniProt Q06124); test: SPR: SHP-2-full-length binding to immobilized PD-1 phosphopeptides; settings: identical conditions as for ITSM-pY248 surface
T2 construct: glutathione-S-transferase (GST) fusions to SHP-2 wild-type full-length (SHP-2-WT-FL) using the pGEX 4T-3 vector; GST (N, cleaved yes); made in house; host or cells: E. coli BL21(D3)LysS
T2 sequence (Q06124 1-593): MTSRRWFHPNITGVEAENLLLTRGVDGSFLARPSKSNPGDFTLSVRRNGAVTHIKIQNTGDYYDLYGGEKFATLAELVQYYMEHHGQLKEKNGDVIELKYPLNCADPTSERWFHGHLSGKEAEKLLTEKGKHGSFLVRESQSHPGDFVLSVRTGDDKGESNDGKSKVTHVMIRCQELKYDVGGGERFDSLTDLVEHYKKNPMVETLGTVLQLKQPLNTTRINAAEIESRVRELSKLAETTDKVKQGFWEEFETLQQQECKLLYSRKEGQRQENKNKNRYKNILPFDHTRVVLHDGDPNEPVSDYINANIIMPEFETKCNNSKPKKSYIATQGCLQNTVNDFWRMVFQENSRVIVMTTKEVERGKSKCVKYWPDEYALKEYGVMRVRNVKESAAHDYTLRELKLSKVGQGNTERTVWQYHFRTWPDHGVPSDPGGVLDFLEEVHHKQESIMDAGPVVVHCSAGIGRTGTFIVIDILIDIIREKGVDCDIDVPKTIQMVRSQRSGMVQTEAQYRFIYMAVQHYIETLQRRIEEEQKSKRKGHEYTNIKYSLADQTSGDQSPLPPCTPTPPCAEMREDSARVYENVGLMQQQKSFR

SHP-2-WT = test: SHP-2 phosphatase activity, DiFMUP substrate; type: biochemical
SHP-2 1-225 [2] = biological target: SHP-2 1-225 (UniProt Q06124); test: native PAGE mobility shift; settings: reference: PD-1cyto-pITIM-pITSM (pY223 + pY248)
[3] = biological target: SHP-2 wild-type full-length, purified recombinant protein (UniProt Q06124)
SHP-2 1-225 [4] = biological target: SHP-2 1-225 (UniProt Q06124); test: ITC; settings: reference: PD-1cyto-pITIM-pITSM (pY223 + pY248); sites Y248
PD1LgDM = test: NanoBiT proximity assay (split luciferase) in HEK-293 cells; settings: PD1SmDM + PD1LgDM + SHP2WT, read off a plot
SHP-2 [5] = biological target: SHP-2 (UniProt Q06124); test: PD-1 IP, SHP-2 blot; settings: reference: PD-1 wild type; sites Y248
SHP-2 [6] = biological target: SHP-2 (UniProt Q06124); test: PD-1 IP, FLAG (SHP-2) blot; settings: reference: PD-1 wild type; sites Y248
PD1LgY248F = test: NanoBiT proximity assay (split luciferase) in HEK-293 cells; settings: PD1SmY248F + PD1LgY248F + SHP2WT, Fyn (-) kinase inactive; parent: est. 100; read off a plot
[7] = biological target: t-SHP-2 (SHP-2 amino acids 1-225, tandem N-SH2 and C-SH2 domains) (UniProt Q06124); test: ITC; MicroCal ITC200; peptide (50-100 uM) titrated into t-SHP-2 (3-5 uM), 19 injections, 20 C; 50 mM HEPES pH 7.4, 100 mM NaCl, 5 mM TCEP
PD1LgY223F = test: NanoBiT proximity assay (split luciferase) in HEK-293 cells; settings: PD1SmY223F + PD1LgY223F + SHP2WT, Fyn (-) kinase inactive; parent: est. 100; read off a plot

CC[C@H](C)[C@H](NC(=O)[C@@H](NC(=O)[C@H](C)NC(=O)[C@H](Cc1ccc(OP(=O)(O)O)cc1)NC(=O)[C@H](CCC(=O)O)NC(=O)[C@@H](NC(=O)[C@H](CCC(N)=O)NC(=O)[C@H](CCC(=O)O)NC(=O)[C@@H]1CCCN1C(=O)[C@@H](NC(=O)[C@H](CS)NC(=O)[C@@H]1CCCN1C(=O)[C@@H](NC(=O)[C@@H]1CCCN1C(=O)[C@@H]1CCCN1C(=O)[C@H](CCC(=O)O)NC(=O)[C@@H]1CCCN1C(=O)[C@@H](NC(=O)[C@H](CCCCN)NC(=O)[C@H](CCC(=O)O)NC(=O)[C@H](CCCNC(=N)N)NC(=O)[C@H](Cc1c[nH]c2ccccc12)NC(=O)[C@H](CCC(N)=O)NC(=O)[C@H](Cc1ccccc1)NC(=O)[C@H](CC(=O)O)NC(=O)[C@H](CC(C)C)NC(=O)[C@H](CCC(=O)O)NC(=O)CNC(=O)[C@H](Cc1ccc(O)cc1)NC(=O)[C@H](CC(=O)O)NC(=O)[C@@H](NC(=O)[C@H](CO)NC(=O)[C@H](Cc1ccccc1)NC(=O)[C@@H](NC(=O)[C@@H]1CCCN1C(=O)[C@@H](NC(=O)[C@H](C)NC(=O)[C@@H](N)CO)C(C)C)C(C)C)C(C)C)[C@@H](C)O)C(C)C)C(C)C)[C@@H](C)O)[C@@H](C)O)C(=O)N[C@H](C(=O)N[C@@H](Cc1ccccc1)C(=O)N1CCC[C@H]1C(=O)N[C@@H](CO)C(=O)O)C(C)C [PD-1cyto-ITIM-pITSM]
Kd [1]: 775 nM

KEDPSAVPVFSVD[pY]GELDFQWRE [pITIM, monophosphorylated human PD-1 ITIM-pY223 phosphopeptide]
specific interaction of SHP-2 protein with peptide-coated surface (SHP-2-full-length): no specific interaction | increase in the catalytic activity of SHP-2 compared to negative control pIRSY727 (SHP-2-WT; DiFMUP substrate, Fig. 5a): did not induce an increase | effect on SHP-2 activation induced by bpITSM (competition) (SHP-2-WT; bpITSM 0.01 µM with increasing amounts of monophosphorylated peptide, Fig. 5d): only when added at very high molar concentrations (1000x excess of bpITSM)

CC[C@H](C)[C@H](NC(=O)[C@@H](NC(=O)[C@H](C)NC(=O)[C@H](Cc1ccc(OP(=O)(O)O)cc1)NC(=O)[C@H](CCC(=O)O)NC(=O)[C@@H](NC(=O)[C@H](CCC(N)=O)NC(=O)[C@H](CCC(=O)O)NC(=O)[C@@H]1CCCN1C(=O)[C@@H](NC(=O)[C@H](CS)NC(=O)[C@@H]1CCCN1C(=O)[C@@H](NC(=O)[C@@H]1CCCN1C(=O)[C@@H]1CCCN1C(=O)[C@H](CCC(=O)O)NC(=O)[C@@H]1CCCN1C(=O)[C@@H](NC(=O)[C@H](CCCCN)NC(=O)[C@H](CCC(=O)O)NC(=O)[C@H](CCCNC(=N)N)NC(=O)[C@H](Cc1c[nH]c2ccccc12)NC(=O)[C@H](CCC(N)=O)NC(=O)[C@H](Cc1ccccc1)NC(=O)[C@H](CC(=O)O)NC(=O)[C@H](CC(C)C)NC(=O)[C@H](CCC(=O)O)NC(=O)CNC(=O)[C@H](Cc1ccc(OP(=O)(O)O)cc1)NC(=O)[C@H](CC(=O)O)NC(=O)[C@@H](NC(=O)[C@H](CO)NC(=O)[C@H](Cc1ccccc1)NC(=O)[C@@H](NC(=O)[C@@H]1CCCN1C(=O)[C@@H](NC(=O)[C@H](C)NC(=O)[C@@H](N)CO)C(C)C)C(C)C)C(C)C)[C@@H](C)O)C(C)C)C(C)C)[C@@H](C)O)[C@@H](C)O)C(=O)N[C@H](C(=O)N[C@@H](Cc1ccccc1)C(=O)N1CCC[C@H]1C(=O)N[C@@H](CO)C(=O)O)C(C)C [PD-1cyto-pITIM-pITSM]
Kd [1]: 15.9 nM

PD-1 cytoplasmic tail peptide (from UniProt Q15116) PD-1cyto-ITIM-pITSM (pY248 only)
binding against the reference (SHP-2 1-225 [2]; sites Y223): same

Bisphosphoryl ITSM peptide pITSM-Ahx4-pITSM (bpITSM)
potency in inducing SHP-2 phosphatase activity relative to the bisphosphoryl peptide bpIRS [3]: 3 fold

VD(pY)GELDFQ-Ahx4- QTE(pY)ATIVFPS [pITIM-pITSM, bisphosphoryl ITIM-ITSM peptide with 4-Ahx spacer]
peptide concentration at which catalytic activity of SHP-2 is increased (SHP-2-WT; DiFMUP substrate, compared to pIRSY727 and pIRSY1172, Fig. 5a): above 1 µM

PD-1 cytoplasmic tail peptide (from UniProt Q15116) PD-1cyto-pITIM-ITSM (pY223 only)
binding against the reference (SHP-2 1-225 [2]; sites Y248): lost | KD (SHP-2 1-225 [4]): lost; reference 0.0159

PD-1 NanoBiT fusions (PD-1-LgBiT and PD-1-SmBiT) in HEK-293 cells with kinase-active Fyn (from UniProt Q15116) DM
response (PD1LgDM; Fyn (+) kinase active, parent: est. 255): 90 RLU

VD(pY)GELDFQ-Ahx4-SVD(pY)GELDFQW [bpITIM, bisphosphoryl ITIM-ITIM peptide with 4-Ahx spacer]
increase in the catalytic activity of SHP-2 compared to negative control pIRSY727 (SHP-2-WT; DiFMUP substrate, Fig. 5a): did not induce an increase

PD-1 (from UniProt Q15116) PD-1 Y248F
binding against the reference (SHP-2 [5]): lost | binding against the reference (SHP-2 [6]): lost

PD-1 NanoBiT fusions (PD-1-LgBiT and PD-1-SmBiT) in HEK-293 cells with kinase-inactive Fyn (from UniProt Q15116) Y248F
response (PD1LgY248F): 80 RLU

Bisphosphoryl peptide of native sequence of PD-1 cytoplasmic tail (PD-1cyto-pITIM-pITSM)
stoichiometry N (peptide per t-SHP-2) [7]: 1

TE(pY)ATIVFP-Ahx10-QTE(pY)ATIVFPS [bpITSM-Ahx10, bisphosphoryl ITSM peptide with 10-Ahx spacer]
catalytic activity of SHP-2 compared to the negative control pIRSY727 (SHP-2-WT; 3x lower enzyme concentration (0.5 µg/ml SHP-2-WT), Fig. 5e): caused a higher increase in SHP-2 activation

PD-1 NanoBiT fusions (PD-1-LgBiT and PD-1-SmBiT) in HEK-293 cells with kinase-inactive Fyn (from UniProt Q15116) Y223F
response (PD1LgY223F): 90 RLU

PD-1 NanoBiT fusions (PD-1-LgBiT and PD-1-SmBiT) in HEK-293 cells with kinase-inactive Fyn (from UniProt Q15116) DM
response (PD1LgDM; Fyn (-) kinase inactive, parent: est. 100): 88 RLU

Monophosphoryl peptide of native sequence of PD-1 cytoplasmic tail (PD-1cyto-ITIM-pITSM)
stoichiometry N (peptide per t-SHP-2) [7]: 2

SAVPVFSVD(pY)GELDFQWREKTPEPPVPCVPEQTEYATIVFPS (SAVPVFSVD[pY]GELDFQWREKTPEPPVPCVPEQTEYATIVFPS) [PD-1cyto-pITIM-ITSM]
peptide: t-SHP-2 interaction by ITC ([1]; same conditions): not detectable
